{
  "source": "patent US20230331823A1",
  "key": {"[1]": {"target": "SARS-CoV-2 RBD (pCoV08, RBD-His6) (SARS-CoV-2 (Wuhan-Hu-1)) (UniProt P0DTC2)", "experiment": "BLI, RBD on probe, antibody, then hACE2 (blocked ligand)"}, "[2]": {"target": "SARS-CoV-2 stabilized Spike trimer (S-2P) (SARS-CoV-2) (UniProt P0DTC2)"}},
  "data": [
    {"substance": "CR3022 (antibody)", "values": [
      {"measurement": "EC50 (read off the curve)", "setting": "[1]", "result": 10, "unit": "µg/mL"},
      {"measurement": "EC50 (read off the curve)", "setting": "[2]", "result": 30, "unit": "µg/mL"}
    ]}
  ]
}
